Reference: the DeepSol protein solubility set

Assay: soluble on expression in E. coli; label from the status in PepcDB or PDB records

**Q.** For “GPGSMAIEVATSTRLQYARMLRSMLEMDRTPLDMMILGFQKIAARSETRQTRQARPVTEEEMNEYIRSRTDWKERVVVRLAWMTASRWSEIAALNPNNFKLKPDGALILDWPVVPKTARADPHRAFRFVRIRGQDAFDIIKLCRTLQENEKLTNITNAQVERALAPWDATAHSIERGALRHAAQIVEKYNLDPHVISQLAKHVNPFDLPQNTV”, which “soluble on expression in E. coli” value is on record?
**A.** soluble

**Q.** For “MGSDKIHHHHHHMWAYESVFYQIYPLGFCGAPFENDGVLEHRILKVNDWIPHIKKLGADAIYFSPVFESDTHGYNTRDYTKIDTRLGTNEDFAQVCDNLHKDGIKVVLDGVFNHVGRGFWAFQDVLKNRESSPYVNWFGRIAFDGNSNYNDGLWYEGWEGNYDLVKLNLRNEDVIQHIFSAIKGWVDEFDIDGLRLDVAYCLDHDFLRRLREFCDSLKPDFFLVGETLHGDYNQIMNDAMLHSVTNYECYKGLYSSFNSMNMFEINHSLLRQFGPEQWTLYKGKHLLSFVDNHDVTRVASILTNEKHLPLIYALAFGMPGIPCVYYGSEWGEKAKKEDGDPALRACFEAPQCNELTEWISKLAEAKKQSKALCYGNFYSVVLTNGQCVFGRECDGEKVFVCINAADQPFFAGFDMGKGDATDLITGEQVTLNGGLELPPYSAYFLR”, which “soluble on expression in E. coli” value is on record?
**A.** not soluble

**Q.** For “MGSDKIHHHHHHMLRVAVVGGGPSGSCAAEVLAKAGIQTWLFERKLDNAKPCGGAIPLCMVDEFDLPESIIDRKVRNMRMISPSNREVDITLDKVYSPDDKSEYIGMCRREVMDAFMRDRAASLGTNLINGLVTKIDTGSNRQGPYTITYSDYSTGKSTGEAKSLEVDLIIGADGANSRVATAMDAGDYNVAIAFQERIKLPNEEMAYYEDLAEMYVGTDVSPDFYGWVFPKYDHVAVGTGTMQKNQTLIKSLQKGVRERAKKRLVHGEVIKVEAHPIPEHPRPRRVVGRMALVGDAAGYVTKSSGEGIYFAAKSGRMCAEQIVESSRSGELIPSEADLKKYLKKWDRKYGSTYIVLSILQAIFYSNDTAREAFVAMCDDMDVQRLTFDSYLYKKVVAMNPWQQIKLTLLTVDALARGIFRNQTSYKPVPSAVRSDEEVNAMLEIKTITGGIKVDNNKDASKQNLASEQEERDPAVSNKS”, which “soluble on expression in E. coli” value is on record?
**A.** not soluble

**Q.** Which “soluble on expression in E. coli” value does the source give for “MNNTEPWKKYVPETVSLYHVDYRENLNEREDLQEQCIRNNNMERLYETVMECYAEQEAESLLKILGEIKEKMAEEKRQEEFEEHREEITDLILSRSDTDPAEELIKNSAAVNMYYSPGEKIEERIGKASKTMSCYKVRRALKLKKGQFDTLIEELVDNATYGGELRIYFNAGFNELVTNDNGKDFRTIRFHRDVIVAVANSFNGSGYHISLPLDITFPFVRDRLFVDSQVRYSYATEVCGMCRDWCDSTSWETEYKTVRNTSRNRQKEKTLSTN” here?
**A.** not soluble

**Q.** With “MRHGCHTVIASRSLPRVLTAARKLAGATGRRCLPLSMDVRAPPAVMAAVDQALKEFGRIDILINCAAGNFLCPAGALSFNAFKTVMDIDTSGTFNVSRVLYEKFFRDHGGVIVNITATLGNRGQALQVHAGSAKAAVDAMTRHLAVEWGPQNIRVNSLAPGPISGTEGLRRLGGPQASLSTKVTASPLQRLGNKTEIAHSVLYLASPLASYVTGAVLVADGGAWLTFPNGVKGLPDFASFSAKL” as the sequence, how does the “soluble on expression in E. coli” value read?
**A.** not soluble

**Q.** For “MELASNFDEFISTQSIEEGLDFGCNLLSSALRLQGDTDPAQAQVLLQELTQYLSLRYVGEHGLALEYLAGLGHQCSPDNYRHSQFWGQLKWIANEIGLSDTALNSLALPPGVLRSGGA”, which “soluble on expression in E. coli” value is on record?
**A.** not soluble

**Q.** With “MAHHHHHHMDSLYFIGKAQFHQLATHISLYHEDMSDGYKHLSTDAVMAVGLKPHKFTYWNVPMMSGYLGKTVPLDIHGGYVMIDEEKVMPMATSYGMLRYALLTSAVRAKEGGRWRYDFMTMNSTLAIGTAAGLGLLSFGRQRIGWIRRHPIGSVMASFVACLTTTVIARQGIKALGIGIVQAQNSHKRALNCLHCVDCLEDVNTYTLKQIEELKAQQIPQQAGMPPPPEEYVRRFKKGVEMQCRLLETDMEEVRLIRKWAGASLCDVHQHLRDDPMGYKEPHGLVLLASDRARAAERPPLATMPDDKKGIRPAKS” as the sequence, how does the “soluble on expression in E. coli” value read?
**A.** not soluble

**Q.** Which “soluble on expression in E. coli” value does the source give for “MGSDKIHHHHHHMTQVDILILSNGPGEVTTWVRPVVRALRQQFGDDRNQVRISVVLSPCSNASGKEAAIALSYPEVDRVQAAEHFWQFLLWGKTIDNWDWRSRGVVVFLGGDQIFPVVIGKKLGYRTVVYAEWEARWHNWIDRFGVMKPEVAARAPHKYAHKFTVVGDLMVEANSHSSLVIGDLSNDKELMTNDIDASTTSHSVGQKTELIGLLPGSKAAKLAQGVPLCLSIAEYVHAKRPQTKFVIPVAPTLDLQTLASFADPQRNSIAEIFGFGGAALIVPEDDRDKALLKTAKGVTVELWQENPAYHLLSQCCICLTTVGANTAELGALGVPMIVLLPTQQLDAMRAWDGLPGLLANLPGVGTPFANTINWLFLRFVRRKGLLAWPNIWAQEEIVPELMGKLQPPEIGEMVVELLAHPEKLADIRAKLRNIRGESGAALKIAQIVCEEMGK” here?
**A.** not soluble

**Q.** With “MSLKAPVDFEQEVAPLLSQRCVSCHSPNIKKGELSLAGPEDLLANGYVVPGDPAGSYLLEVVSPAGDDPAAMPKLGDALAEPEVALLRRWIEQGAVWPDGFVIREASKADRSWWSLQPLADIHPPEVAAAPAAWRQNPIDRFVWAKLSEANLKPNSPADRRTLIRRATFDLTGLPPTAEEIDTFVASDSPDAYPQLIDRMLASPRYGERWGRHWLDVIRFGESRGFERNQIITNLWPFRDYVIRSINEDKPFDQFIREHLAGDVIAPNTPQVEVGSAFLVAGPYDDVGNQDPAQAAQIRANTIDEMIRASSEAFLGLTIGCARCHDHKFDVISQRDYYAMYATFAGVKHGERAVATSEQREGHHHHHH” as the sequence, how does the “soluble on expression in E. coli” value read?
**A.** not soluble

**Q.** With “MPIRFLHTADLHLDSPLRTFGDLARERRRDFLKTFDRIVNLAIKREVDCILIAGDLFDSTSVGAETVGRVQDAFSRLAGRGVQVVLIPGTHDNIISAESVYSRYQFTGVHILREPAVDEPLRLDIRGEAVFFYGFAYRSDRSREALESMRRRSGDGIHVGLLHGSLKGNPEWEMRKKDIPFSVADLVALDLDYIALGHYHDAACLEEGGRVIACYPGSPEGKKFGENGPRYALIVEVAPGNASVERVEVQTRIIREFNVDASLFAEPAALEAELARLGTSDTVGRIRLCGTVEEPLDTANLSGRVKGNFAWLELVDETDLYNSGHVKRMEREDSIRGLFIRKIHERYDAAGSDAERELCRDALRLVMGRFSRGGGN” as the sequence, how does the “soluble on expression in E. coli” value read?
**A.** not soluble

**Q.** With “MRITLVDHPLVQHKLAHLRDKRTGPKDFRELAEEVAMLMAYEAMRDLELEETTVETPIAPARVKVLSGKKLALVAILRAGLVMVEGILKLVPHARVGHIGLYRDPESLNPVQYYIKLPPDIAERRAFLLDPMLATGGSASLALSLLKERGATGVKLMAILAAPEGLERIAKDHPDTEVVVAAIDERLNDHGYIVPGLGDAGDRIYGTK” as the sequence, how does the “soluble on expression in E. coli” value read?
**A.** soluble

**Q.** Which “soluble on expression in E. coli” value does the source give for “DRICTNCCAGTKGCKYFSDDGTFVCEGESDPRNPKACTLNCDPRIAYGVCPRSEEKKNDRICTNCCAGTKGCKYFSDDGTFVCEGESDPRNPKACPRNCDPRIAYGICPLA” here?
**A.** soluble

**Q.** Which “soluble on expression in E. coli” value does the source give for “GSMSFLGFGGGQPQLSSQQKIQAAEAELDLVTDMFNKLVNNCYKKCINTSYSEGELNKNESSCLDRCVAKYFETNVQVGENMQKMGQSFNAAGKF” here?
**A.** soluble

**Q.** For “AIADKKAMWDRFYTENGSKGQFKNFEWFFGFPSVKDLVLPALQAMSCSHSGPLHILDMGCGTSALGPCIYSTSPCAVRVTCADISPVAVKLMEEHTKSTSTQPCNPSSALVFLELDCTQMTGHFKSRSLDLILDKGTTDALVRSKEGQVKAGQILRQSLQVLRPSGSFLQFSDEDPDARLIWLEREVQGAEVTADVGVQEIGELRGVSYFCYQISPRSRPHS”, which “soluble on expression in E. coli” value is on record?
**A.** soluble

**Q.** Which “soluble on expression in E. coli” value does the source give for “MREIVWVHSQRIAPYKTLILNEFCYYPLELDPTPFNALIFTSKNAVFSLLETLKNSPKLKMLQNIPAYALSEPTAKTLQDHHFKVAFMGEKAHGKEFVQEIFPLLEKKSVLYLRAKEIVSSLDTILLEHGIDFKQAVVYENKLKHLTLSEQNALKPKEKSILIFTAISHAKAFLHYFEFLENYTAISIGNTTALYLQEQGIPSYIAKKPSLEACLELALSLRIKEC” here?
**A.** not soluble

**Q.** For “MSNNETMMFNVEKEKVNEARELLVSVYKALKEKGYNPINQIVGYILSGDPTYITNHLDARSSIRKVERDELLEEILRCYLEECIGKEGSV”, which “soluble on expression in E. coli” value is on record?
**A.** soluble

**Q.** Which “soluble on expression in E. coli” value does the source give for “AAPGKPTIAWGNTKFAIVEVDQAATAYNNLVKVKNAADVSVSWNLWNGDTGTTAKILLNGKEAWSGPSTGSSGTANFKVNKGGRYQMQVALCNADGCTASDATEIVVADTDGSHLAPLKEPLLEKNKPYKQNSGKVVGSYFVEWGVYGRNFTVDKIPAQNLTHLLYGFIPICGGNGINDSLKEIEGSFQALQRSCQGREDFKVSIHDPFAALQKAQKGVTAWDDPYKGNFGQLMALKQAHPDLKILPSIGGWTLSDPFFFMGDKVKRDRFVGSVKEFLQTWKFFDGVDIDWEFPGGKGANPNLGSPQDGETYVLLMKELRAMLDQLSAETGRKYELTSAISAGKDKIDKVAYNVAQNSMDHIFLMSYDFYGAFDLKNLGHQTALNAPAWKPDTAYTTVNGVNALLTQGVKPGKIVVGTAMYGRGWTGVNGYQNNIPFTGTATGPVKGTWENGIVDYRQIASQFMSGEWQYTYDATAEAPYVFKPSTGDLITFDDARSVQAKGKYVLDKQLGGLFSWEIDADNGDILNSMNASLGNSAGVQLEHHHHHH” here?
**A.** soluble

**Q.** With “MSQLPGLSRETRESIAMYHLRVPQTEEELERYYQFRWEMLRKPLHQPKGSERDAWDAMAHHQMVVDEQGNLVAVGRLYINADNEASIRFMAVHPDVQDKGLGTLMAMTLESVARQEGVKRVTCSAREDAVEFFAKLGFVNQGEITTPTTTPIRHFLMIKPVATLDDILHRGDWCAQLQQAWYEHIPLSEKMGVRIQQYTGQKFITTMPETGNQNPHHTLFAGSLFSLATLTGWGLIWLMLRERHLGGTIILADAHIRYSKPISGKPHAVADLGALSGDLDRLARGRKARVQMQVEIFGDETPGAVFEGTYIVLPAKPFGPYEEGGNEEELEHHHHHH” as the sequence, how does the “soluble on expression in E. coli” value read?
**A.** not soluble

**Q.** With “SDTGVIEGGLNVTLTIRLLMHGKEVGSIIGKKGESVKKMREESGARINISEGNCPERIITLAGPTNAIFKAFAMIIDKLEEDISSSMTNSTAASRPPVTLRLVVPASQCGSLIGKGGCKIKEIRESTGAQVQVAGDMLPNSTERAITIAGIPQSIIECVKQICVVMLETLSQSPPKGVTIPYRPKPSSSPVIFAGGQDRYSTGSDSASFPHTTPSMCLNPDLEGPPLEAYTIQGQYAIPQPDLTKLHQLAMQQSHFPMTHGNTGFSGIESSSPEVKGYWAGLDASAQTTSHELTIPNDLIGCIIGRQGAKINEIRQMSGAQIKIANPVEGSTDRQVTITGSAASISLAQYLINVRLSSETGGMGSS” as the sequence, how does the “soluble on expression in E. coli” value read?
**A.** soluble

**Q.** For “MGSDKIHHHHHHMLDLLNLPGIKPVDMRHESKGLVIVAEPETVEVPLCGGCNTLMHKHGTRKNKFMDTPLYMEPVRLEVQRPRFRCESCGKMSMPELSFLDDKRRATKRLVDVIRQQCLGTTFHALAEQTGVAVNTVKNIAHDLINELSQTVRYETPVIMGIDEVNLAGGYRCVITNLATNNVFDMLEHRTQEHLKPFFKALPDADKVEWVCTDMWRPFKRSFAQYLPNAKLVIDKFHVVKMASEALEVERKNYQAQLSKEDRIYVKKSIRWLTLKRPGNLTPAEQKALEVVKQAIPELAVAYDFKEAFFCIYDELDKQNAQNAFEAWENSLPDQGLVAFKKLAKTVHNHYDDIFAYWDAPFSITNGYTEGLNGLIKMSNRLGRGYGYPIIRAKTLYSKEARKVGSGIRAGHGKVEYGPHIPTLLKQAESGELD”, which “soluble on expression in E. coli” value is on record?
**A.** not soluble

**Q.** Which “soluble on expression in E. coli” value does the source give for “MPKDKLVITVSGLAGSGTTTLSKKIAEHYGLKHVYAGLIFRQMAKEKGMSLEEFQKYAELHPEIDREVDRRQIEAAKEGNVVIEGRLAGWMVKNADLKIWLDAPIRVRAERVAKREGISVEEAFMKIAEREMQNRKRYLNLYGIDINDLSIYDLIINTSKWSPEGVFAIVKAAIDHLDPVGDAGSKKEKEVG” here?
**A.** soluble
